According to PMC8324831, “A synthetic nanobody targeting RBD protects hamsters from SARS-CoV-2 infection” (Nature Communications, 2021):
Positions count from the first letter of the chain named.

B1: SR50 (VHH)
VHH: QVQLVESGGGLVQAGGSLRLNCAASGFPVAQAVMAWYRQALGKEREWVAAMHSTGTYTAYADSVKGRFTISRDNAKNTVYLQMNSLKPEDTAVYYCAVHVGFWYAGQGTQVTVS
B2: SR56 (VHH)
VHH: QVQLVESGGGLVQAGGSLSLSCAASGFPVEHYGMYWYRQAPGKEREWVAAIRSDGQWTHYADSVKGRFTISRDNAKNTVYLQMNSLKPEDTAVYYCTVGVGSNYYGQGTQVTVS
B3: SR54 (VHH)
VHH: QVQLVESGGGLVQAGGSLRLSCAASGFPVSQARMHWYRQAPGKEREWVAAIGSSGDFTRYADSVKGRFTISRDNAKNTVYLQMNSLKPEDTAVYYCEVQVGQWYEGQGTQVTVS
B4: SR51 (VHH)
VHH: QVQLVESGGGLVQAGGSLRLSCAASGFPVWESYMRWYRQAPGKEREWVAAIQSNGNNTWYADSVKGRFTISRDNAKNTVYLQMNSLKPEDTAVYYCVVYVGYEYHGQGTQVTVS
B5: SR49 (VHH)
VHH: QVQLVESGGGLVQAGGSLRLSCAASGFPVFHAYMAWYRQAPGKEREWVAAIESDGSSTHYADSVKGRFTISRDNAKNTVYLQMNSLKPEDTSVYYCAVLVGFWYAGQGTQVTVS
B6: SR57 (VHH)
VHH: B5 VHH with F30E, H31Q, Y33E, E52V, D54Y, S56H, H59Y, S92A, L99F
B7: SR52 (VHH)
VHH: QVQLVESGGGLVQAGGSLRLSCAASGFPVNNMEMTWYRQAPGKEREWVAAIASDGSYTEYADSVKGRFTISRDNAKNTVYLQMNSLKPEDTAVYYCYVWVGKSYIGQGTQVTVS
B8: SR46 (VHH)
VHH: QVQLVESGGGLVQAGGSLRLSCAASGFPVFTENMHWYRQAPGKEREWVAAIYSYGVWTLYADSVKGRFTISRDNAKNTVYLQMNSLKPEDTAVYYCVVQVGEWYEGQGTQVTVS
B9: SR58 (VHH)
VHH: B8 VHH with F30K, T31Q, Y54T, V56N, W57F, V97A, E102Q
B10: SR48 (VHH)
VHH: B3 VHH with S30N, A32N, R33N, G52Y, R59L, Q102F, E105T
B11: SR53 (VHH)
VHH: B8 VHH with F30Y, T31S, E32Q, N33H, Y54N, V56T, W57Y, V97E, Q99N
B12: SR55 (VHH)
VHH: B8 VHH with F30D, E32T, Y54S, V56G, W57F, V97T, Q99W, E102D
B13: SR47 (VHH)
VHH: B8 VHH with F30K, N33T, V56T, W57Y, V97E
B14: SR45 (VHH)
VHH: QVQLVESGGGLVQAGGSLRLSCAASGFPVDNATMAWYRQAPGKEREWVAAIHSIGGYTTYADSVKGRFTISRDNAKNTVYLQMNSLKPEDTAVYYCVGVGKHYYGQGTQVTVS
B15: SR59 (VHH)
VHH: QVQLVESGGGLVQAGGSLRLSCAASGFPVKTSRMYWYRQAPGKEREWVAAIISYGSVTFYADSVKGRFTISRDNAKNTVYLQMNSLKPEDTAVYYCYVYVGAQYWGQGTQVTVS

Target: SARS-CoV-2 S-RBD with Avi-tag and deca-His tag (residues 330-531) (SARS-CoV-2, UniProt P0DTC2, biotin on the Avi tag (BirA) where immobilised on streptavidin sensors or used in ELISA and FSEC)

Row | Binder | binding result
1 | B1 | binds
2 | B2 | binds
3 | B3 | binds
4 | B4 | binds
5 | B5 | binds
6 | B6 | binds
7 | B7 | binds
8 | B8 | binds
9 | B9 | binds
10 | B10 | binds
11 | B11 | binds
12 | B12 | binds
13 | B13 | binds
14 | B14 | binds
15 | B15 | binds
